{"source": "the supplement of paper PMC10724198", "note": "± gives the standard deviation of the averaged measurements.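 Also: PSI is a weighted mean of sequencing reads over stability bins, variants kept only with over 10 reads, mCherry proximal and sfGFP distal, peptide attached via GGGS linker.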"}
{"system": "Saccharomyces cerevisiae", "assay": "protein stability index of tFT-peptide fusion (C-terminal peptide) (PSI (0-1 scale)); higher = more stable (slower turnover)", "details": "genetic background: wild type; temperature: 30 C"}
{"sequence": "PSPAHLPPRSPL", "protein stability index": "0.714 ± 0.2"}
{"sequence": "PSPAPFPSSPSL", "protein stability index": "0.687 ± 0.0073"}
{"sequence": "PSPAPLASPPRA", "protein stability index": "0.693 ± 0.042"}
{"sequence": "PSPAPPSPPSPP", "protein stability index": "0.679 ± 0.028"}
{"sequence": "PSPASPTPPLVQ", "protein stability index": "0.682 ± 0.067"}
{"sequence": "PSPATCGSSFSK", "protein stability index": "0.734 ± 0.056"}
{"sequence": "PSPATCLCSPLP", "protein stability index": "0.7057 ± 0.0019"}
{"sequence": "PSPFFSRPSYLS", "protein stability index": "0.718 ± 0.026"}
{"sequence": "PSPHHHYTPPST", "protein stability index": "0.681 ± 0.0073"}
{"sequence": "PSPHLHPPPLPP", "protein stability index": "0.641 ± 0.0047"}
{"sequence": "PSPLPLSPLPFS", "protein stability index": "0.687 ± 0.04"}
{"sequence": "PSPLRPSPAVPS", "protein stability index": "0.716 ± 0.064"}
{"sequence": "PSPLRRSTPPCL", "protein stability index": "0.709 ± 0.13"}
{"sequence": "PSPPAPPRGLLP", "protein stability index": "0.704 ± 0.03"}
{"sequence": "PSPPDTDTPIPL", "protein stability index": "0.691 ± 0.034"}
{"sequence": "PSPPHPPPPSPY", "protein stability index": "0.753 ± 0.097"}
{"sequence": "PSPPLPRPLSPP", "protein stability index": "0.72 ± 0.045"}
{"sequence": "PSPPPLGPLPAL", "protein stability index": "0.667 ± 0.037"}
{"sequence": "PSPPPLPPLPPP", "protein stability index": "0.764 ± 0.12"}
{"sequence": "PSPPPSSAPYPS", "protein stability index": "0.609 ± 0.077"}
{"sequence": "PSPPRAPSTPLI", "protein stability index": "0.744 ± 0.06"}
{"sequence": "PSPPSAKLRRTP", "protein stability index": "0.72 ± 0.057"}
{"sequence": "PSPPSPPPAPPP", "protein stability index": "0.643 ± 0.1"}
{"sequence": "PSPQPTRPPGPL", "protein stability index": "0.704 ± 0.039"}
{"sequence": "PSPSLPSACARP", "protein stability index": "0.701 ± 0.012"}
{"sequence": "PSPTPLPSPRLP", "protein stability index": "0.676 ± 0.098"}
{"sequence": "PSPTRPPAYPRS", "protein stability index": "0.672 ± 0.11"}
{"sequence": "PSPTTSRFAPPP", "protein stability index": "0.53 ± 0.047"}
{"sequence": "PSRAPQGRADNT", "protein stability index": "0.69 ± 0.11"}
{"sequence": "PSRGPGRVAPCD", "protein stability index": "0.641 ± 0.013"}
{"sequence": "PSRKFYSRHFPP", "protein stability index": "0.671 ± 0.028"}
{"sequence": "PSRSPPPLPAPH", "protein stability index": "0.69 ± 0.011"}
{"sequence": "PSRVRPLRLVLP", "protein stability index": "0.614 ± 0.033"}
{"sequence": "PSSLATFLPWPI", "protein stability index": "0.739 ± 0.039"}
{"sequence": "PSSPLLGPPPPD", "protein stability index": "0.677 ± 0.01"}
{"sequence": "PSSSVICLLPPA", "protein stability index": "0.636 ± 0.04"}
{"sequence": "PSSVRPFDPLLC", "protein stability index": "0.724 ± 0.063"}
{"sequence": "PSTRPQYLFLPP", "protein stability index": "0.635 ± 0.016"}
{"sequence": "PSVPLLPPAPLS", "protein stability index": "0.784 ± 0.075"}
{"sequence": "PSVRRLPARRRT", "protein stability index": "0.626 ± 0.066"}
{"sequence": "PSVSPLFSSPPP", "protein stability index": "0.719 ± 0.012"}
{"sequence": "PSWPRLSFRPST", "protein stability index": "0.689 ± 0.022"}
{"sequence": "PSYRVVVFSLPD", "protein stability index": "0.758 ± 0.063"}
{"sequence": "PTCPAPLPPSSP", "protein stability index": "0.699 ± 0.061"}
{"sequence": "PTETRRIGHHEG", "protein stability index": "0.661 ± 0.043"}
{"sequence": "PTGPPPPSLGPP", "protein stability index": "0.694 ± 0.021"}
{"sequence": "PTLHVGPGTPHA", "protein stability index": "0.705 ± 0.058"}
{"sequence": "PTLPSRYPPPMF", "protein stability index": "0.751 ± 0.01"}
{"sequence": "PTLPTLFPSSSL", "protein stability index": "0.7448 ± 0.0045"}
{"sequence": "PTLSSRPPPYPR", "protein stability index": "0.642 ± 0.048"}
{"sequence": "PTNPPLSQPPPQ", "protein stability index": "0.702 ± 0.039"}
{"sequence": "PTPGGLIIVLGS", "protein stability index": "0.6322 ± 0.0041"}
{"sequence": "PTPHLHPTSLPG", "protein stability index": "0.724 ± 0.1"}
{"sequence": "PTPLCPPLAVRL", "protein stability index": "0.691 ± 0.032"}
{"sequence": "PTPLPSPCPAPP", "protein stability index": "0.703 ± 0.025"}
{"sequence": "PTRRVHRTPLFP", "protein stability index": "0.778 ± 0.13"}
{"sequence": "PTSFPAPNLPPD", "protein stability index": "0.669 ± 0.0045"}
{"sequence": "PTSVRPPRRRPR", "protein stability index": "0.745 ± 0.089"}
{"sequence": "PTTQVGRRTPLA", "protein stability index": "0.647 ± 0.029"}
{"sequence": "PTVGGGLDGVGR", "protein stability index": "0.669 ± 0.063"}
{"sequence": "PTWGRSDESKAM", "protein stability index": "0.744 ± 0.0099"}
{"sequence": "PVASGYTMWSCV", "protein stability index": "0.693 ± 0.015"}
{"sequence": "PVEAPVGLVCAK", "protein stability index": "0.568 ± 0.011"}
{"sequence": "PVFPLTLPAFSS", "protein stability index": "0.815 ± 0.018"}
{"sequence": "PVGWRGGYVGGR", "protein stability index": "0.666 ± 0.092"}
{"sequence": "PVHFLPTPRAPL", "protein stability index": "0.686 ± 0.039"}
{"sequence": "PVLGRFGSTFVV", "protein stability index": "0.674 ± 0.059"}
{"sequence": "PVLGYLTRGLWL", "protein stability index": "0.721 ± 0.015"}
{"sequence": "PVLMTHPYFASS", "protein stability index": "0.725 ± 0.0083"}
{"sequence": "PVLPPLLPLPCL", "protein stability index": "0.644 ± 0.044"}
{"sequence": "PVLRPPPPLSPP", "protein stability index": "0.734 ± 0.021"}
{"sequence": "PVNQRPDGGNQD", "protein stability index": "0.764 ± 0.016"}
{"sequence": "PVPERTSAEPPG", "protein stability index": "0.618 ± 0.038"}
{"sequence": "PVPLSALPPLPP", "protein stability index": "0.746 ± 0.034"}
{"sequence": "PVPMVPTYPPSP", "protein stability index": "0.736 ± 0.044"}
{"sequence": "PVPPFDGLVPAL", "protein stability index": "0.728 ± 0.089"}
{"sequence": "PVPPPPPPPPPL", "protein stability index": "0.667 ± 0.0059"}
{"sequence": "PVRCSDLDLTFL", "protein stability index": "0.774 ± 0.054"}
{"sequence": "PVRDGFSLCFVL", "protein stability index": "0.761 ± 0.14"}
{"sequence": "PVRIQTFLFCVP", "protein stability index": "0.595 ± 0.012"}
{"sequence": "PVRRAHPPPPRP", "protein stability index": "0.674 ± 0.014"}
{"sequence": "PVRVRGRGGCGG", "protein stability index": "0.684 ± 0.11"}
{"sequence": "PVSCLGNQACYV", "protein stability index": "0.628 ± 0.073"}
{"sequence": "PVSLPPSLRRPS", "protein stability index": "0.736 ± 0.034"}
{"sequence": "PVTRRDVDLPPP", "protein stability index": "0.706 ± 0.039"}
{"sequence": "PVTTYPPQRHIA", "protein stability index": "0.593 ± 0.03"}
{"sequence": "PVVTGGFHIVGF", "protein stability index": "0.793 ± 0.078"}
{"sequence": "PWPGSWALFCFI", "protein stability index": "0.719 ± 0.15"}
{"sequence": "PWPPRPPPPPSL", "protein stability index": "0.694 ± 0.048"}
{"sequence": "PWRPRMAGVDYR", "protein stability index": "0.867 ± 0.13"}
{"sequence": "PWTSSTTSRFPS", "protein stability index": "0.727 ± 0.033"}
{"sequence": "PYHVPTPRATNR", "protein stability index": "0.659 ± 0.026"}
{"sequence": "PYTHDRTTSPVF", "protein stability index": "0.762 ± 0.12"}
{"sequence": "PYWVPSKSSLSP", "protein stability index": "0.742 ± 0.068"}
{"sequence": "QAGALTTIPTFA", "protein stability index": "0.616 ± 0.019"}
{"sequence": "QAYGFEDISFSI", "protein stability index": "0.808 ± 0.076"}
{"sequence": "QCYNGSSGVSNL", "protein stability index": "0.676 ± 0.028"}
{"sequence": "QDSETYSNEAGL", "protein stability index": "0.669 ± 0.031"}
{"sequence": "QFFVVLVSHEGR", "protein stability index": "0.63 ± 0.011"}
{"sequence": "QFRCAIFRLSFV", "protein stability index": "0.613 ± 0.023"}
{"sequence": "QFTFPPGTSAPV", "protein stability index": "0.66 ± 0.032"}
